Experimental data taken from article PMC2816219.
pKd: −log10 of the molar value.

Target: F-actin (non-muscle human actin, pre-polymerized in vitro) (human) (UniProt P60709)
Assay: co-sedimentation; constant protein (16 nM GST-ARN127(25), 150 nM GST-Htt exon 1(25)) with increasing F-actin (0-8 µM or 0-16 µM); gels quantified for percent bound; approximate Kd

pKd	Substance
6.00	GST-ARN127(25) (from UniProt P10275 1-127) (domain or fragment)
5.70	GST-Htt exon 1(25) (domain or fragment)
